Experiments:
GP120 (HIV-1 JRFL) = experiment: SPR; conditions: chains peptide; modification not given
[1] = target: gp120 of HIV-1 BaL (HIV-1 BaL); experiment: cell-based or functional assay
[2] = target: HIV-1 JRFL gp120 protein (HIV-1 JRFL); experiment: peptide blocking ELISA: coated gp120 pre-incubated with GP3 (125 ng), then recombinant CCR5-GST, anti-GST HRP; competitor CCR5

Binder | Kd (GP120 (HIV-1 JRFL)) [µM] | inhibition of HIV-1 BaL infection (p24+ CD4 T cells), peptide without streptavidin, 100 µM [1] [%] | inhibition of HIV-1 BaL infection (p24+ CD4 T cells), peptide without streptavidin, 250 µM [1] [%] | reduction in absorbance (CCR5 binding to gp120) [2] [%] | inhibition of HIV-1 BaL infection (p24+ CD4 T cells), peptide without streptavidin, 50 µM [1] [%] | viral inhibition, peptide conjugated with streptavidin, 50 µM [1] [%]
LLALSAYMVGGGGGGSGGSGK [GP11] | 48.3 | – | – | – | – | –
SYSFCPRRQGGGGGGSGGSGK (modifications not checked) [GP3] | 39.1 | 34.5 | 54.7 | 65.8 | – | –
LWCRRLNLLGGGGGGSGGSGK [GP16] | 42.7 | < 1 | 50 | – | < 1 | 62.6
RRRNVPLILGGGGGGSGGSGK [GP2] | 76.1 | – | – | – | – | –
